Where a chain is given by its changes, count along the chain named.
Tests used:
Experiment in all cases: co-expression in E. coli (pETDuet-1, N-6 His on the -1 fragment, -2 fragment untagged); Ni-NTA purification
[1] = target: T1, IPD082Ia-2, C-terminal fragment of homolog IPD082Ia (Pseudomonas monteilii)
T1 chain: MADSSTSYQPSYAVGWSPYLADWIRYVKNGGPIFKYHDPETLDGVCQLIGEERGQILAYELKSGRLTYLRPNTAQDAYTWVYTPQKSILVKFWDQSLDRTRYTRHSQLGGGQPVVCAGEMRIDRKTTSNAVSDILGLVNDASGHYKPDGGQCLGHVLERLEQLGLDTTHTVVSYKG
Description: (§1) The IPD082Aa gene (SEQ ID NO: 1) was amplified by PCR using genomic DNA isolated from strain SSP446D7 using forward primer […] (SEQ ID NO: 59) and reverse primer […] (SEQ ID NO: 60). The resulting PCR product was DNA sequence verified and subcloned into pET16B vector with an N-terminal His-10 tag, and into pET24a vector with C-terminal His-10 tag or without tag. The plasmid DNA, containing the IPD082Aa gene insert, was transformed into competent C41 E. coli cells for recombinant protein expression. E. coli cells were grown at 37° C. with carbenicillin or kanamycin selection to OD₆₀₀ equal to 0.7-0.8 and then 1 mM ITPG was added and further grown at 16° C. for 16 hours to induce protein expression. The E. coli expressed His-tagged proteins were purified by immobilized metal ion chromatography using Ni-NTA agarose (Qiagen, Germany) according to the manufacturer's protocols. Other IPD082 homologs were expressed in a similar manner except the gene sequences were synthesized.
(§2) The polynucleotides, SEQ ID NO: 33 and SEQ ID NO: 35 respectively, encoding the 38.2 kDa N-terminal fragment (IPD082Aa-1—SEQ ID NO: 34) and 20.5 kDa C-terminal fragment (IPD082Aa-2—SEQ ID NO: 36) of IPD082Aa, were also co-expressed (FIG. 11) in a pETDuet™-1 vector (EMD Millipore, a Life Science business of Merck KGaA, Frankfurter StraBe 250, 64293, Darmstadt, Germany). Similarly polynucleotides encoding the C-terminal fragments of the IPD082 homologs: IPD082Hb-2 (SEQ ID NO: 37); IPD082Ia-2 (SEQ ID NO: 39); IPD082Ic-2 (SEQ ID NO: 41); IPD082Ie-2 (SEQ ID NO: 43); IPD082Ib-2 (SEQ ID NO: 45); IPD082Hd-2 (SEQ ID NO: 47); and IPD082Hc-2 (SEQ ID NO: 49), were cloned as chimeric fusions with IPD082Aa-2 (SEQ ID NO: 35) in the pETDuet™-1 vector containing IPD082Aa-1 polynucleotide (SEQ ID NO: 33).

[2] = target: T2, IPD082Ic-2, C-terminal fragment of homolog IPD082Ic (Pseudomonas sp. S16-2)
T2 chain: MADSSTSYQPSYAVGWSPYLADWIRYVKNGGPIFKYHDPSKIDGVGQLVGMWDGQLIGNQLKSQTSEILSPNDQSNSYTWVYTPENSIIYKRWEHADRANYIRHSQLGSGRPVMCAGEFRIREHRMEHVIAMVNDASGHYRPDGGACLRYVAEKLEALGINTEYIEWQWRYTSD
Description: as §1, §2

[3] = target: T3, IPD082Ie-2, C-terminal fragment of homolog IPD082Ie (Pseudomonas agarici)
T3 chain: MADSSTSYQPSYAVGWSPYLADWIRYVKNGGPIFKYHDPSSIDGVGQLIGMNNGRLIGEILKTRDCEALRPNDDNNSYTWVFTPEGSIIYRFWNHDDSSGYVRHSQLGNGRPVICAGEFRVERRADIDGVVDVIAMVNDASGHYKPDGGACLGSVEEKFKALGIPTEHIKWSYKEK
Description: as §1, §2

[4] = target: T4, IPD082Ib-2, C-terminal fragment of homolog IPD082Ib (Pseudomonas sp VLB120)
T4 chain: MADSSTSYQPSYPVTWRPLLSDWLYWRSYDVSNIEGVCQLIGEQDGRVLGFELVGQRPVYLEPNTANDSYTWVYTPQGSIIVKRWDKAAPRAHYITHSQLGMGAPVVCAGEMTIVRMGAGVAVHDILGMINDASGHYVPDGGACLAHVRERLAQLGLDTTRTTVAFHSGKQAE
Description: as §1, §2

[5] = target: T5, IPD082Hd-2, C-terminal fragment of homolog IPD082Hd (Pseudomonas corrugata)
T5 chain: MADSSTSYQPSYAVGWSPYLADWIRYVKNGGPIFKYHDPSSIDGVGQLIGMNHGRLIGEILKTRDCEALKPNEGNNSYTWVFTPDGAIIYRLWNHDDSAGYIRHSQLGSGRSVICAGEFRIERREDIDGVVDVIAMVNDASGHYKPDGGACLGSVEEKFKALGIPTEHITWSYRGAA
Description: as §1, §2

[6] = target: T6, IPD082Hc-2, C-terminal fragment of homolog IPD082Hc (Pseudomonas corrugata)
T6 chain: T2 chain with Q55K, I68M, L155F, Y164H, T172A
Description: as §1, §2

Measured: binding result

B1: IPD082Aa-1, N-terminal region of IPD082Aa (pETDuet-1 construct, N-6 His) (other)
chain: MQTTVSETLVSGSDPRLQVSMGNETANGRWDNPYAIQFTYSIAGRQFFYGQNLKTHYWFIQELLPGGKMGQETANGRWDNPYAVQFAFSVGGRQFFYGQNLETNYWFIQELLAGGKMGQETANGRWNNPYASQFAFSVGGRQFFYGQNLKTNYWFIQELLAGGKMGQETANGTLDGPFAVQFPFSVGGSQYFYGQNIKDRSWFIKELLAGGKVGKTTASGRWDNAYAVQFAYPAEQYGRQYFYGQNLDTNYWFVQELLPGGAMGEEIMNGRWGNPYATQFAYEQGGISYFYGQNQSSNYWFIQELLSDTEYTVRRLPLLDYSSSTSAAQQSAPGVCL
notes: Co-expressed in pETDuet-1 with untagged C-terminal fragments of IPD082 homologs; not shown: N-terminal 6xHis tag of the pETDuet-1 vector ('N-6 His for -1')
binds: all assays above

— US20180325119A1 (PIONEER HI BRED INTERNATIONAL, published 2018)
